Test results as given in patent US20140186823, “MUTANT PORES” (OXFORD NANOPORE TECHNOLOGIES LIMITED, published 2014).

Assays:
Settings in all cases: chain copies: 8 (stated)
MS-(B1-D90Q)8 = MS-(B1-D90Q)8 (Mycobacterium smegmatis, UniProt A0QR29 SEQ:1-184, N90Q); assay: current range; Phi29 unzipping, +180 mV
Protocol: (§1) The runs were conducted at room temperature at an applied potential of +180 mV. Current levels observed when the DNA is in the enzyme bound state were indexed and the current level, its duration and variance were recorded.
(§2) This pre-incubation mix was added to 900 μL of buffer in the cis compartment of the electrophysiology chamber to initiate capture of the polymerase-DNA complexes in the MspA nanopore (to give final concentrations of DNA=0.5 nM, Enzyme=0.1 μM). Experiments were carried out at a constant potential of +180 mV. Current levels observed when the DNA is in the enzyme bound state were indexed and the current level, its duration and variance were recorded.

MS-(B1-N86T)8 = MS-(B1-N86T)8 (Mycobacterium smegmatis, UniProt A0QR29 SEQ:1-184, N86T); assay: current range; Phi29 unzipping, +180 mV
Protocol: as §1, §2

MS-(B1-I105L)8 = MS-(B1-I105L)8 (Mycobacterium smegmatis, UniProt A0QR29 SEQ:1-184, I105L); assay: current range; Phi29 unzipping, +180 mV
Protocol: as §1, §2

MS-(B1-S103G)8 = MS-(B1-S103G)8 (Mycobacterium smegmatis, UniProt A0QR29 SEQ:1-184, S103G); assay: current range; Phi29 unzipping, +180 mV
Protocol: as §1, §2

MS-(B1-I89Y-D90S)8 = MS-(B1-I89Y-D90S)8 (Mycobacterium smegmatis, UniProt A0QR29 SEQ:1-184, I89Y,N90S); assay: current range; Phi29 unzipping, +180 mV
Protocol: as §1, §2

MS-(B1-I105Y)8 = MS-(B1-I105Y)8 (Mycobacterium smegmatis, UniProt A0QR29 SEQ:1-184, I105Y); assay: current range; Phi29 unzipping, +180 mV
Protocol: as §1, §2

MS-(B1-L88S)8 = MS-(B1-L88S)8 (Mycobacterium smegmatis, UniProt A0QR29 SEQ:1-184, L88S); assay: mean S.D. of current levels (B1 baseline 3.26)
Protocol: as §2

MS-(B1-L88Q)8 = MS-(B1-L88Q)8 (Mycobacterium smegmatis, UniProt A0QR29 SEQ:1-184, L88Q); assay: mean S.D. of current levels (B1 baseline 3.26)
Protocol: as §2

MS-(B1-L88N)8 = MS-(B1-L88N)8 (Mycobacterium smegmatis, UniProt A0QR29 SEQ:1-184, L88N); assay: mean S.D. of current levels (B1 baseline 3.26)
Protocol: as §2

B1: FIG. 12 DNA substrate (dsDNA)
DNA 1: TTTTTTTTTTTTTTTTTTTTTCCCCCCCCCCCCCCTATTCTGTTTATGTTTCTTGTTTGTTAGCCCCCTTTGATAAGACAAATACAAAGAACAAACAATCGGCCCTTTAGTGGAGCGAGTGCGAGAGGCGAGCGGTCAA
DNA 2: GTATCTCCATCGCTGTTGACCGCTCGCCTCTCGCACTCGCTCCACTAAAGGGCCGATTGTTTGTTCTTTGTATTTGTCTTATCAAAGGGGGCTAACAAACAAGAAACATAAACAGAATAG
DNA 3: CAGCGATGGAGATAC
modifications: iSp9 and 3' Cholesteryl-TEG on SEQ 23
Q: Which activity (MS-(B1-D90Q)8) does the source give for B1 here?
A: 70 pA

Q: And the activity (MS-(B1-N86T)8)?
A: 58 pA

Q: What about the activity (MS-(B1-I105L)8) of the same binder?
A: 42 pA

Q: And the activity (MS-(B1-S103G)8)?
A: 54 pA

Q: What about the activity (MS-(B1-I89Y-D90S)8) of the same binder?
A: 67 pA

Q: And the activity (MS-(B1-I105Y)8)?
A: 45 pA

Q: What about the activity (MS-(B1-L88S)8) of the same binder?
A: 3.12

Q: And the activity (MS-(B1-L88Q)8)?
A: 3.3

Q: What about the activity (MS-(B1-L88N)8) of the same binder?
A: 3.22
